Data set [1] addresses T1, Nop15 no-linker (Saccharomyces cerevisiae, UniProt P53927 40-191, del60-76).
T1 sequence: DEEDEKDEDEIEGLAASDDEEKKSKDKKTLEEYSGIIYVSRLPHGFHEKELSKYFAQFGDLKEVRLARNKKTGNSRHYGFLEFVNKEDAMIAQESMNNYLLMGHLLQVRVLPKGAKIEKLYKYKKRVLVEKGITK
In words: fluorescence polarization; 150 mM NaCl; Nop15 FP: 10 nM RNA/DNA, 20 mM Tris-HCl pH 7.5, 0.02% Tween 20, 150 or 50 mM NaCl; SRSF3 FP: 10 mM MES pH 5.5, 50 mM Arg/Glu, 0.1 mM TCEP, 0.02% Tween 20; incubated 37 °C 30 min then 25 °C 20 min, read at RT. The note with it: protein: recombinant, tags: N-terminal SUMO tag (pSMT3) cleaved with Ulp1, label: 5' fluorescein. Background: Fluorescence polarisation rises when a labelled molecule tumbles more slowly, as on binding a larger partner.

In data set [2] the target is T2, Nop15 no-ENC (Saccharomyces cerevisiae, UniProt P53927 =SGGSSGKSGSG+50-191, internal_change).
T2 sequence: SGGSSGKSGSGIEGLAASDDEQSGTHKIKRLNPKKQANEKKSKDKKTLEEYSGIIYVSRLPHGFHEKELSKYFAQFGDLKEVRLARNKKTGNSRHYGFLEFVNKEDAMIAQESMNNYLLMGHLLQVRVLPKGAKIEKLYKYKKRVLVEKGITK
The description is as above. The settings on record: protein: recombinant, tags: N-terminal SUMO tag (pSMT3) cleaved with Ulp1, label: 5' fluorescein.

The next data set deals with T3, Nop15 WT (1xENC) (Saccharomyces cerevisiae, UniProt P53927 40-191).
T3 sequence: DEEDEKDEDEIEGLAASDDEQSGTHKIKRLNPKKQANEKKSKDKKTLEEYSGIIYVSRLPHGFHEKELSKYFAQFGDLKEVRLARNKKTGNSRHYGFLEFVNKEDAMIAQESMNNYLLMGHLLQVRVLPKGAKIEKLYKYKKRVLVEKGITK
The description is as above. The settings on record: protein: recombinant, tags: N-terminal SUMO tag (pSMT3) cleaved with Ulp1, label: 5' fluorescein.

Data set [3] addresses T2, Nop15 no-ENC. In words: fluorescence polarization; 50 mM NaCl; Nop15 FP: 10 nM RNA/DNA, 20 mM Tris-HCl pH 7.5, 0.02% Tween 20, 150 or 50 mM NaCl; SRSF3 FP: 10 mM MES pH 5.5, 50 mM Arg/Glu, 0.1 mM TCEP, 0.02% Tween 20; incubated 37 °C 30 min then 25 °C 20 min, read at RT. The settings on record: protein: recombinant; tags: N-terminal SUMO tag (pSMT3) cleaved with Ulp1; label: 5' fluorescein; single strand.

In data set [4] the target is T1, Nop15 no-linker. Kind of data set: fluorescence polarization; ND, too weak for detection; Nop15 FP: 10 nM RNA/DNA, 20 mM Tris-HCl pH 7.5, 0.02% Tween 20, 150 or 50 mM NaCl; SRSF3 FP: 10 mM MES pH 5.5, 50 mM Arg/Glu, 0.1 mM TCEP, 0.02% Tween 20; incubated 37 °C 30 min then 25 °C 20 min, read at RT. The note with it: protein: recombinant; tags: N-terminal SUMO tag (pSMT3) cleaved with Ulp1; label: 5' fluorescein; single strand.

The target in data set [5] is T4, Nop15 2xENC (Saccharomyces cerevisiae, UniProt P53927 39-49+39-191, internal_change).
T4 sequence: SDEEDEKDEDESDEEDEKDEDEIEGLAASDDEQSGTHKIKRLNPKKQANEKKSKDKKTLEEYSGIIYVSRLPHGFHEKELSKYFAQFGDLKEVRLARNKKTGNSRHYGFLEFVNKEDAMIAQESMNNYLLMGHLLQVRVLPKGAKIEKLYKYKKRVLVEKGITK
Described as above. The note with it: protein: recombinant; tags: N-terminal SUMO tag (pSMT3) cleaved with Ulp1; label: 5' fluorescein; single strand.

Data set [6] concerns the target T4, Nop15 2xENC. In words: fluorescence polarization; 150 mM NaCl; Nop15 FP: 10 nM RNA/DNA, 20 mM Tris-HCl pH 7.5, 0.02% Tween 20, 150 or 50 mM NaCl; SRSF3 FP: 10 mM MES pH 5.5, 50 mM Arg/Glu, 0.1 mM TCEP, 0.02% Tween 20; incubated 37 °C 30 min then 25 °C 20 min, read at RT. The note with it: protein: recombinant; tags: N-terminal SUMO tag (pSMT3) cleaved with Ulp1; label: 5' fluorescein; hairpin with 8 bp stem and 9-nt single-stranded region.

Setting [7] is: hairpin with 8 bp stem and 9-nt single-stranded region.

From publication PMC8348266, “Intrinsically disordered electronegative clusters improve stability and binding specificity of RNA-binding proteins” come the findings set out here.

By Kd is commonly meant the equilibrium constant for the complex coming apart.

With AGAGAGAGAGUCUCUCUCUC (structured_RNA) [nonspecific stem-loop RNA], the Kd in the data set with Nop15 no-linker [1] (hairpin, 8 bp stem) amounted to 14100 ± 1400 nM; with Nop15 no-ENC [2] (hairpin, 8 bp stem) it was 244 ± 18 nM; with Nop15 WT (1xENC) (hairpin, 8 bp stem), 945 ± 65 nM.

UUCAGAGCA (ssRNA) [nonspecific ssRNA]: in the data set with Nop15 no-ENC [3], the Kd worked out at 427 ± 98 nM. Further, the binding result with Nop15 no-linker [4] and in the data set with Nop15 2xENC [5] was “no binding” each time.

Take UGAGUGAUACUCUUUGGAGUUAACUUGAAAUUGCU (structured_RNA) [ITS2 III.A 26-60]: the Kd with Nop15 no-linker [1] (setting [7]) is 583 ± 90 nM; in the data set with Nop15 2xENC [6] it was 1870 ± 270 nM; with Nop15 no-ENC [2] (setting [7]), 173 ± 32 nM; with Nop15 WT (1xENC) (setting [7]), 215 ± 34 nM.

Consider AGAGAGAGA (ssDNA) [nonspecific ssDNA], for which the Kd with Nop15 no-ENC [3] worked out at 1160 ± 150 nM. In addition, the binding result in the data set with Nop15 no-linker [4] and with Nop15 2xENC [5] was “no binding” each time.
